Measurements reported in patent publication US20240010735A1 (EISAI R AND D MANAGEMENT, published 2024).

Assays:
Assay in all cases: ELISA: Fc-His proteins (1 nM) captured on anti-6-His antibody, antibody B 10 µg/mL with human IgG 100 µg/mL, HRP anti-human kappa light chain antibody, OD450 as % of mouse EphA4-Fc-His
[1] = molecular target: T1, mouse EphB1 extracellular region-Fc-His protein (mouse; human, UniProt Q8CBF3 18-540)
T1 construct: extracellular domain; not shown: Fc region of human IgG1; histidine tag
T1 sequence (looked up): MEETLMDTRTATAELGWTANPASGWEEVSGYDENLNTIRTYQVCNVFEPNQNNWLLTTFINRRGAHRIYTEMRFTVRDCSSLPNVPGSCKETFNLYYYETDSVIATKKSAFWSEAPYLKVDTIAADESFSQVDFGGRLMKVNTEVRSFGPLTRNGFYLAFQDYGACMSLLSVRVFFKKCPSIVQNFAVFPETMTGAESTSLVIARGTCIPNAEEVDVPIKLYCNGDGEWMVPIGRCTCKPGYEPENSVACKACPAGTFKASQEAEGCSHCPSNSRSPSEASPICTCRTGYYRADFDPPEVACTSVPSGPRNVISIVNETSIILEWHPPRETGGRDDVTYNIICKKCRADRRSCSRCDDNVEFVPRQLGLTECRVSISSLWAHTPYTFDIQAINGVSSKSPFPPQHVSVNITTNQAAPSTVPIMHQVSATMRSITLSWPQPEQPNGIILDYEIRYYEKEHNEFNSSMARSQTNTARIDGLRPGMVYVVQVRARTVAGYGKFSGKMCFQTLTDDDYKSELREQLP
Description: (§1) Rabbit anti-6-His antibodies (Bethyl Laboratories) were coated onto the wells of a 96-well plate (Nunc). After incubating at 4° C. overnight, the wells were blocked at room temperature for 1 hour by 1% Block Ace (DS Pharma Biomedical). After washing 3 times with 0.05% Tween 20/PBS (Thermo […]), each Eph receptor of mouse extracellular region-Fc-His protein (final concentration 1 nM) was seeded into each well, and incubated at room temperature for 1 hour. After washing 3 times, human IgG solution (100 μg/mL, Sigma) and antibody B (10 μg/mL) were supplemented to the wells, and incubated at room temperature for 1 hour. Horseradish peroxidase-labeled goat anti-human Kappa Light Chain antibody (IBL) was added, and incubated at room temperature for 1 hour. After washing 3 times, TMBZ (3,3′,5,5′-tetramethylbenzidine, Sigma) solution was added to the wells, and upon confirmation of modest coloring, an equal amount of quenching solution (1 N H₂SO₄, Wako Pure Chemicals) was added to the wells, and absorbance at 450 nm was read by a microplate reader (PerkinElmer).

[2] = molecular target: T2, mouse EphB4 extracellular region-Fc-His protein (mouse; human, UniProt P54761 16-539)
T2 construct: extracellular domain; not shown: Fc region of human IgG1; histidine tag
T2 sequence (looked up): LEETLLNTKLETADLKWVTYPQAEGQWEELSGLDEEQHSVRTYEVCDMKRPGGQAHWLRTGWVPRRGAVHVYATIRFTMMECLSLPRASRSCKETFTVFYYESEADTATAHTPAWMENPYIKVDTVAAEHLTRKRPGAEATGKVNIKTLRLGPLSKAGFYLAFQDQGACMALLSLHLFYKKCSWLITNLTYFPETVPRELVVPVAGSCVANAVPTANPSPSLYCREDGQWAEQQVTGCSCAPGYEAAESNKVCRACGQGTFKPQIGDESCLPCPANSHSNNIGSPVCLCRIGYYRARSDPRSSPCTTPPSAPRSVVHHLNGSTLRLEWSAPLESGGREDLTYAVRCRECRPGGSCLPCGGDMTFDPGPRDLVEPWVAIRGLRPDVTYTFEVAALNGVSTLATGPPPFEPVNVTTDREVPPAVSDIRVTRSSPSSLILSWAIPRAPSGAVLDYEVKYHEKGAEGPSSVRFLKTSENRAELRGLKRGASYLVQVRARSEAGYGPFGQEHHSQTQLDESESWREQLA
Description: as §1

[3] = molecular target: T3, mouse EphA1 extracellular region-Fc-His protein (mouse; human, UniProt Q60750 27-548)
T3 construct: extracellular domain; not shown: Fc region of human IgG1; histidine tag
T3 sequence (looked up): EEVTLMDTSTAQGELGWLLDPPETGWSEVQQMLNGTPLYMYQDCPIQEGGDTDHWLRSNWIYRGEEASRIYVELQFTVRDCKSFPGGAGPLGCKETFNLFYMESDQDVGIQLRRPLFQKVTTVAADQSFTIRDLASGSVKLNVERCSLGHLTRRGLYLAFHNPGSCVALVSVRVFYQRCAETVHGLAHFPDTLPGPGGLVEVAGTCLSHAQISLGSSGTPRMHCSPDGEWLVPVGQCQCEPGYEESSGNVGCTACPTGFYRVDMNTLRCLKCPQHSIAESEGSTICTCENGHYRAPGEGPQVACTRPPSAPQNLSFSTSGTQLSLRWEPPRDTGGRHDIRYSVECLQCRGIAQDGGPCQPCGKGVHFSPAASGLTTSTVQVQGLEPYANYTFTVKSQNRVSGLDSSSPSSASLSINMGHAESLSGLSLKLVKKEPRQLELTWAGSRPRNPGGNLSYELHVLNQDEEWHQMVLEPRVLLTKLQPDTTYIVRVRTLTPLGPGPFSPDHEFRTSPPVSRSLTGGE
Description: as §1

Measured: binding result

B1: humanized anti-EphA4 monoclonal antibody (antibody B) (antibody, human IgG2, V domains shown)
VH: QVQLVESGGGVVQPGRSLRLSCAVSGFSLTRFGVHWVRQAPGKGLEWVAVIWRGGSTDYNAAFMSRLTISKDNSKNTVYLQMNSLRAEDTAVYYCAKESLFGVYYDYGYYSMDYWGQGTTVTVSS
VL: DIQMTQSPSSLSASVGDRVTITCRASQEISGYLSWLQQKPGKAPKRLIYAASTLDSGVPSRFSGSRSGTEYTLTISSLQPEDFATYYCLQYASYPLTFGGGTKVEIKR
notes: expressed in Expi293F cells; also called humanized antibody of antibody A; HK2-42 / L1-8
no binding (tested: 10 µg/mL): all assays above
